From the supplement of paper PMC12783771
± gives the standard deviation of the averaged measurements.

B1: library; a variant is named by its letters at X, in order (parent)
chain: MNIQIGELAKRTACPVVTIRFYEQEGLLPPPGRSRGNFRLYGEEHVERLQFIRHCRSLDMPLSDVRTLLSYRKRPDQDCGEVXMLLDEHIRQVESRIGALLELKHHLVELREACSGARPAQSCGILQXLSXCVCXTRGTTAHXSD

Key:
[1] = variants of: B1; assay: sfGFP reporter fluorescence (15 h) (µM FITC); higher = higher leak; conditions: library round: Round 2; ligand: none
Experimental: (§1)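 Cell-free biosensing: 1 µL Echo-assembled CFE reactions with linear PbrR variant templates (5 nM) and pPbrR-sfGFP reporter, with 1 µM Pb, 30 µM Zn or no ligand; endpoint sfGFP fluorescence after 15 h at 30 °C calibrated as µM FITC. Round 2 ML-predicted PbrR mutants; up to 3 biological replicates.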

[2] = variants of: B1; assay: sfGFP reporter fluorescence (15 h) (µM FITC); higher = stronger transcriptional activation; conditions: library round: Round 2
Experimental: as §1

Variant	sfGFP reporter fluorescence [1]	sfGFP reporter fluorescence ([2]; ligand: 1 µM Pb)	sfGFP reporter fluorescence ([2]; ligand: 30 µM Zn)
NHCDP I125V	0.0459 ± 0.0044	0.0526 ± 0.0016	0.0631 ± 0.0035
NGDDP M60L P61N D64N	0.291 ± 0.025	0.582 ± 0.11	2.53 ± 0.24
NIAPP	0.139 ± 0.0095	0.472 ± 0.03	2.03 ± 0.16
TGSAP V108L	0.0457 ± 0.0012	0.102 ± 0.0018	0.475 ± 0.012
NGSAY L107V	0.12 ± 0.017	0.238 ± 0.042	1.97 ± 0.17
NGDAP D64T Q127G	0.0728 ± 0.0058	0.121 ± 0.013	1.87 ± 0.15
NHDAW	0.0656 ± 0.0096	0.117 ± 0.0091	0.55 ± 0.081
TGDDY E112I	0.0493 ± 0.0015	0.0522 ± 0.0014	0.076 ± 0.0028
TGDDY V82I L129I	0.0454 ± 0.0012	0.0463 ± 0.00051	0.0601 ± 0.013
IGDDR K104V H106A	0.0522 ± 0.00085	0.136 ± 0.0052	0.0496 ± 0.0028
NGDPP G124S I125L	0.0484 ± 0.0015	0.0455 ± 0.0014	0.0506 ± 0.001
NGCAP S130A	0.0466 ± 0.011	0.0819 ± 0.0045	0.429 ± 0.066
NGADP M60L P61N D64K	0.804 ± 0.17	1.38 ± 0.2	2.82 ± 0.43
TGCDT	0.0478 ± 0.0007	0.0731 ± 0.0033	0.0847 ± 0.0041
TGCDL	0.045 ± 0.00089	0.0743 ± 0.011	0.0958 ± 0.0017
TGCDI	0.0463 ± 0.0019	0.0711 ± 0.0029	0.0916 ± 0.0046
TGCDA	0.0468 ± 0.0016	0.0758 ± 0.0041	0.0857 ± 0.0083
NGDDP M60L P61N D64K K104V L107C	0.716 ± 0.071	2.14 ± 0.18	3.11 ± 0.31
TGDDP R111D E112H	0.0469 ± 0.002	0.0446 ± 0.0019	0.0529 ± 0.003
NHDDA V108L	0.0477 ± 0.0017	0.0671 ± 0.0043	0.271 ± 0.03
TGDPR E109L	0.063 ± 0.0052	0.114 ± 0.0072	0.346 ± 0.039
TGADP V108L	0.0451 ± 0.00078	0.0942 ± 0.0052	0.321 ± 0.0054
TGDAL V108L	0.0451 ± 0.0016	0.073 ± 0.0021	0.281 ± 0.0062

Variant	sfGFP reporter fluorescence [1]	sfGFP reporter fluorescence ([2]; ligand: 1 µM Pb)	sfGFP reporter fluorescence ([2]; ligand: 30 µM Zn)
SGSPP	0.0484 ± 0.0013	0.123 ± 0.0072	0.394 ± 0.023
TGSDY Q121A	0.0567 ± 0.0051	0.0961 ± 0.0073	0.443 ± 0.056
NHDDA E109L	0.0459 ± 0.0013	0.0809 ± 0.0052	0.343 ± 0.014
NGSAA K104R	0.0641 ± 0.0074	0.097 ± 0.0024	1.05 ± 0.14
NGDDR V108L T139A	0.0498 ± 0.0012	0.068 ± 0.0054	0.809 ± 0.081
TGDDW L126I	0.0487 ± 0.0018	0.04581 ± 0.00039	0.0773 ± 0.00089
TGDDP I97A K104G	0.0644 ± 0.0063	0.155 ± 0.025	0.412 ± 0.04
NGDAL P61N	0.0792 ± 0.0022	0.235 ± 0.018	1.57 ± 0.074
NGADL L129V	0.0491 ± 0.0012	0.0459 ± 0.00051	0.0502 ± 0.0022
NGLAP P61T	0.217 ± 0.015	0.402 ± 0.021	1.9 ± 0.27
NGAAP L107C	1.86 ± 0.29	2.29 ± 0.21	3.05 ± 0.55
NGDDM I90L I125L	0.0615 ± 0.0043	0.0526 ± 0.0027	0.0576 ± 0.0035
SGDDP I90L V108N	0.0447 ± 0.0012	0.04614 ± 0.00039	0.0897 ± 0.013
TGDDP R96A K104V	0.052 ± 0.0012	0.0513 ± 0.0043	0.0712 ± 0.0018
NGYPP V108I	0.0743 ± 0.0068	0.149 ± 0.033	1.1 ± 0.074
TGAAP	0.0444 ± 0.0012	0.0747 ± 0.0046	0.359 ± 0.0081
NGHAY	0.0533 ± 0.003	0.0816 ± 0.0062	0.791 ± 0.037
TGDDP D64T R111A	0.09 ± 0.012	0.212 ± 0.024	2.38 ± 0.096
TGDDP D64T R111L	0.0779 ± 0.0063	0.151 ± 0.011	1.9 ± 0.12
TGDDM V108L	0.0605 ± 0.0032	0.0645 ± 0.0026	0.209 ± 0.025
TGNDP I90L	0.0469 ± 0.0017	0.0573 ± 0.0011	0.192 ± 0.014
SGDVP K104V	0.067 ± 0.0056	0.134 ± 0.0074	1.3 ± 0.15
